Results reported in the supplement of paper PMC10567573.
± gives the standard deviation.

Assay: protein stability index of a GFP-peptide fusion (GPS, HEK-293T) (PSI 1-6); higher = more stable
Conditions: c terminus: a fixed tail appended
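Note: 24-mer peptide tiles fused after GFP, lentivirally expressed, FACS-sorted into six equal bins by GFP/DsRed ratio, decoded by Illumina sequencing, PSI is the read-weighted mean bin number.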

Sequence | protein stability index (treatment: DMSO) | protein stability index (treatment: MLN4924 1 uM, 8 h)
RNRLAATKCRKRKLERIARLEDKV [JUNB] | 3.78 ± 0.17 | 3.86 ± 0.12
ADGLLQLGPLGSTAFLPDSKCLVD [GALNT9] | 3.97 ± 0.16 | 4.09 ± 0.19
LSSRWKNWWIRGILTLTMISLFFL [CDS1] | 2.54 ± 0.37 | 2.17 ± 0.36
QARHQLVLTAVDGGTPARSGTTLI [PCDHGC5] | 3.18 ± 0.083 | 3.15 ± 0.38
AVKGSLGSDLGGPLPTDPMLGLAL [TSPAN10] | 3.16 ± 0.17 | 3.06 ± 0.12
TIDMGPQLKVVERTRTATMLCAAS [PTPRD] | 3.18 ± 0.23 | 3.49 ± 0.21
KPPETSVPVVTPTASTAPPVPATA [SNAP91] | 5.34 ± 0.35 | 5.37 ± 0.18
QQDFLGLPEELRRLSGLSSVGHNW [C22orf15] | 2.96 ± 0.21 | 3.11 ± 0.14
GGGREPQGLAEKSPLQTIGEEQTQ [WDR41] | 5.31 ± 0.26 | 5.58 ± 0.17
RMTSAAHYYPKLMSIMGNVLRFLP [GFOD1] | 2.32 ± 0.39 | 2.15 ± 0.36
NGAKELWFFLQSELKKLKNLEGNE [FUT8] | 2.45 ± 0.47 | 2.48 ± 0.33
ERSDPVEQGKPVIPAAVLAGFTGS [ETS2] | 4.59 ± 0.23 | 4.7 ± 0.31
